Assay results as given in PMC11960969, “Mdga2 deficiency leads to an aberrant activation of BDNF/TrkB signaling that underlies autism-relevant synaptic and behavioral changes in mice” (PLOS Biology, 2025).

B1: sp¦Q7TT15¦GLT17_MOUSE (protein, UniProt Q7TT15 1-598, looked up)
Polypeptide …: MASLRRVKVLLVLNLIAVAGFVIFLAKCRPIAVRSGDAFHEIRPRAEVANLSAHSASPIQDAVLKRLSLLEDIVYRQLNGLSKSLGLIEGYGGRGKGGLPATLSPSEEEKAKGPHEKYGYNSYLSEKISLDRSIPDYRPTKCKELKYSKELPQISIIFIFVNEALSVILRSVHSAVNHTPTHLLKEIILVDDNSDEEELKAPLEEYVHKRYPGLVKVVRNQKREGLIRARIEGWKAATGQVTGFFDAHVEFTAGWAEPVLSRIQENRKRVILPSIDNIKQDNFEVQRYENSAHGYSWELWCMYISPPKDWWDAGDPSLPIRTPAMIGCSFVVNRKFFGEIGLLDPGMDVYGGENIELGIKVWLCGGSMEVLPCSRVAHIERKKKPYNSNIGFYTKRNALRVAEVWMDDYKSHVYIAWNLPLENPGIDIGDVSERKALRKSLKCKNFQWYLDHVYPEMRRYNNTIAYGELRNNKAKDVCLDQGPLENHTAILYPCHGWGPQLARYTKEGFLHLGALGTTTLLPDTRCLVDNSKSRLPQLLDCDKVKSSLYKRWNFIQNGAIMNKGTGRCLEVENRGLAGIDLILRSCTGQRWAIKNPIK
B2: sp¦P48381¦RFX3_MOUSE (protein, UniProt P48381 1-749, looked up)
Transcription factor RFX3: MQTSETGSDTGSTVTLQTSVASQAAVPTQVVQQVPVQQQVQQVQTVQQVQHVYPAQVQYVEGSDTVYTNGAIRTTTYPYTETQMYSQNTGGNYFDTQGSSAQVTTVVSSHSMVGTGGIQMGVTGGQLISSSGGTYLIGNSMENSGHSVTHTTRASPATIEMAIETLQKSDGLSTHRSSLLNSHLQWLLDNYETAEGVSLPRSTLYNHYLRHCQEHKLDPVNAASFGKLIRSIFMGLRTRRLGTRGNSKYHYYGIRVKPDSPLNRLQEDMQYMAMRQQPMQQKQRYKPMQKVDGVADGFTGSGQQTGTSVEQTVIAQSQHHQQFLDASRALPEFGEVEISSLPDGTTFEDIKSLQSLYREHCEAILDVVVNLQFSLIEKLWQTFWRYSPSTPADGTTITESSNLSEIESRLPKAKLITLCKHESILKWMCNCDHGMYQALVEILIPDVLRPIPSALTQAIRNFAKSLEGWLSNAMNNIPQRMIQTKVAAVSAFAQTLRRYTSLNHLAQAARAVLQNTSQINQMLSDLNRVDFANVQEQASWVCQCDDNMVQRLETDFKMTLQQQSTLEQWAAWLDNVMMQALKPYEGRPSFPKAARQFLLKWSFYSSMVIRDLTLRSAASFGSFHLIRLLYDEYMFYLVEHRVAQVTGETPIAVMGEFGDLNAVSPGNLDKDEGSEVESETDEDLDDSSEPRAKREKTELSQAFPVGCMQPVLESAVQPSLLNPLHSEHIVTSTQTIRQCSATGNTYTAV
B3: sp¦Q8C5W0¦CLMN_MOUSE (protein, UniProt Q8C5W0 1-1052, looked up)
Calmin: MAAQEWDWFQREELIGQISDIRVQNLQVERENVQKRTFTRWINLHLEKCDPPLEVTDLFVDIQDGKILMALLEVLSGRNLLHEYKSSSHRIFRLNNIAKALKFLEDSNVKLVSIDAAEIADGNPSLVLGLIWNIILFFQIKELTGNLSRSSPSSSLSPGSGGTDSDSSYPPTPTTERSVAVAVKDQRKAIKTLLSWVQRKTRKYGVAVQDFAGSWRSGLAFLAVIKAIDPSLVDMKQALEDSTRDNLEKAFSIAHDSLHIPRLLEPEDIMVDMPDEQSIVTYVAQFLERFPELEPEDFVNPDKEAPIESTFVRIKESPSEQGSRVLLLSENGERAYTVNQETSYPPPDKVFVCDQLESPTGFCLDSAPSHKLSDSSTEFMHEIIDQVLQGSTGKTGSIAEPTPESSILSTRKDGRRSNSLPVKKTVHFEADLHKDASCSKDPFYSSDFRFEGSPKATKELSKQDGHVSLAEVSKEKKKSEQEARLVLEAASDKVPESTVDGLDAVPQDAQPSQDSSFCNGTVESPSSQGEKGPPPSSPGDHTLLANSTELKVQLLTVEPMDKEDYFECIPLKASKFNRDLVDFASTSQAFGEDPSSHEKTRGEEEGSENHAEKPGKRKSKSPRAETEAAESRLEPKKLEPPPKDPEQEDQGHALPPETPADKKPKVYEKAKRKSTRHHSEEEGEAESGFSAVCEEEIPSAPPSTSVSLETLRSHSEEGLDFKPSPPLSKISVIPHDLFYYPHYEVPLAAVLEAYAEGGEDLKSEDTDLEHPEDSYLQDSREEEADEDEEEAQSSQSSCSFSLPVDNSYPSVSEHVSHVDGSSEGPTSALGPGSPPSHEDHQPKETKENGPVESQQSQEPPNPELPTKPLEEKLTEASTSSKKKEKRKHMDHVESSLFIAPGTVRSSDDLEENSSEHKVPSRNSHSDSSIYIRRHTNRSLELDHFSYVQLRNAADLDDRRNRVLNRYNSQKLTELILQFYGIRADMKREYKHARLSMTGTNSSGEAVPLGNQSPPNDSLTQFVQQPDVIYFILFLWLLVYCLLLFPQLDVSRL
B4: sp¦Q8BTY2¦S4A7_MOUSE (protein, UniProt Q8BTY2 1-1034, looked up)
Sodium bicarbonate …: MEADGAGEQMRPLLTRGPDEEAVVDLGKTSSTVNTKFEKEELESHRAVYVGVHVPFSKESRRRHKHRGHKHHHRRRKDKDSDKEDGRESPSYDTPSQRVQFILGTEDDDEEHIPHDLFTEMDELCYRDGEEYEWKETARWLKFEEDVEDGGDRWSKPYVATLSLHSLFELRSCILNGTVMLDMRASTLDEIADMVLDNMIASGQLDDSIRENVREALLKRHHHQNEKRFTSRIPLVRSFADIGILASPQSAPGNLDNSKSGEMKGNGSGGSRENSTVDFSKVDMNFMRKIPTGAEASNVLVGEVDFLERPIIAFVRLAPAVLLSGLTEVPVPTRFLFLLLGPAGKAPQYHEIGRSIATLMTDEIFHDVAYKAKDRNDLLSGIDEFLDQVTVLPPGEWDPSIRIEPPKSVPSQEKRKIPVFPNGSAAMSVGPPKEDDHHAGPELQRTGRLFGGLILDIKRKAPFFLSDFKDALSLQCLASILFLYCACMSPVITFGGLLGEATEGRISAIESLFGASLTGIAYSLFAGQPLTILGSTGPVLVFEKILFKFCRDYHLSYLSLRTSIGLWTSFLCIVLVATDASSLVCYITRFTEEAFAALICIIFIYEALEKLFHLGEIYAFNMHNNLDELTSYTCVCAEPSNPSNETLELWKRKNITAYSVSWGNLTVSECKTFHGMFVGSACGPHGPYVPDVLFWCVVLFFTTFFLSSFLKQFKTKGYFPTKVRSTISDFAVFLTIVIMVAIDYLVGIPSPKLHVPEKFEPTDPSRGWIISPLGDNPWWTLLIAAVPALLCTILIFMDQQITAVIINRKEHKLKFIPMPVLYGVFLYMGVSSLKGIQFFDRIKLFGMPAKHQPDLIYLRYVPLWKVHVFTVVQLTCLVLLWVIKASAAAVVFPMMVLALVFVRKLMDLCFTKRELSWLDDLMPESKKKKEDDKKKKEKEEAERMLQDDEDTVHLPFERGSLLQIPVKTLKYSIDPSVVNISDEMAKTAQWKALSMNTENAKVTRPNTSPEKPVSVTINFEDEPSKKYMDAETSL
B5: sp¦Q6A0D4¦RFTN1_MOUSE (protein, UniProt Q6A0D4 2-554, looked up)
Raftlin: GCSLNKLEKREEKRPGNIYSTLKRPQVETKVDVTYEYCFLEFTTLTAAELPRSSATRLASLRDLPDQLLELYQQGFSLAALHPFVQPTRRQEKILLEHIFRAILVKKTNRSQKAELHDEGYTLELDYCSSLEHLADQKLIPEFIKKVQEAASQGLKFVSVVPQYQPSVSSAGSRRLKPVANSVEDARDVKCTLGDRSSLENDTPKAAETDAATAGVNRRPETKPGSTGDVPSAQQPGIPSPSAENEAGEFPLRGLQPALDRSEGDPSNGPEELPSRKMEIFAFFNRPKSQQKCRQYYPVTIPLQVSKNGQTVSSLDASWLEHMSDHFRKGGVLVNAVFQLGMANDSFYGLTDGVFIFEAVSTEDNRTTQGYDAIVVEQWTVLEGTEVQTDYMPLLNSLAAYGWQLTCVLPTPILKTTREGNVSTKQIVFLQRPCLPQKTKKRESKFQWRFSRNEIHGRQTRKSKGKLSASNKQQAEENEKNLEDQFSKAGDVGNCVLGAPQWGRASEVREQRQGSAAVQNGPAGHNRDSVALRHSNPRAEAELAAGPTPTEAN
B6: sp¦Q61097¦KSR1_MOUSE (protein, UniProt Q61097 1-873, looked up)
Kinase suppressor of Ras 1: MDRAALRAAAMGEKKEGGGGGAAADGGAGAAVSRALQQCGQLQKLIDISIGSLRGLRTKCSVSNDLTQQEIRTLEAKLVKYICKQQQSKLSVTPSDRTAELNSYPRFSDWLYIFNVRPEVVQEIPQELTLDALLEMDEAKAKEMLRRWGASTEECSRLQQALTCLRKVTGLGGEHKMDSGWSSTDARDSSLGPPMDMLSSLGRAGASTQGPRSISVSALPASDSPVPGLSEGLSDSCIPLHTSGRLTPRALHSFITPPTTPQLRRHAKLKPPRTPPPPSRKVFQLLPSFPTLTRSKSHESQLGNRIDDVTPMKFELPHGSPQLVRRDIGLSVTHRFSTKSWLSQVCNVCQKSMIFGVKCKHCRLKCHNKCTKEAPACRITFLPLARLRRTESVPSDINNPVDRAAEPHFGTLPKALTKKEHPPAMNLDSSSNPSSTTSSTPSSPAPFLTSSNPSSATTPPNPSPGQRDSRFSFPDISACSQAAPLSSTADSTRLDDQPKTDVLGVHEAEAEEPEAGKSEAEDDEEDEVDDLPSSRRPWRGPISRKASQTSVYLQEWDIPFEQVELGEPIGQGRWGRVHRGRWHGEVAIRLLEMDGHNQDHLKLFKKEVMNYRQTRHENVVLFMGACMNPPHLAIITSFCKGRTLHSFVRDPKTSLDINKTRQIAQEIIKGMGYLHAKGIVHKDLKSKNVFYDNGKVVITDFGLFGISGVVREERRENQLKLSHDWLCYLAPEIVREMIPGRDEDQLPFSKAADVYAFGTVWYELQARDWPFKHQPAEALIWQIGSGEGVRRVLASVSLGKEVGEILSACWAFDLQERPSFSLLMDMLERLPKLNRRLSHPGHFWKSADINSSKVMPRFERFGLGTLESGNPKM

What follows are molecules tested on hippocampal proteins (assay: DIA quantification proteomics, hippocampus of Mdga2+/- vs WT mice). Conditions: Mdga2+/- vs WT mouse hippocampus (HET-HIP-VS-WT-HIP); S3 Table, downregulated DEPs; SE, pvalue and adj_pvalue in own columns c3-c5.
Design: species or system mouse
Procedure: The hippocampus of 1.5–2-month-old Mdga2^ +/− male mice and their WT littermate controls was collected and sent to the BGI company for DIA quantification proteomics and data analysis. Briefly, samples were lysed and sonicated. After centrifugation, the supernatant was taken for quantification. Equal amounts of proteins (100 μg) per sample were subjected to trypsin enzymatic hydrolysis. After dryness, 10 μg enzymatic peptides per sample were separated by high-pH fractionation into a total of 10 fractions using high-performance liquid chromatography (HPLC) and freeze-dried. Data-dependent acquisition (DDA) fractions and DIA samples were analyzed by nano-LC–MS/MS. DDA data was identified by Andromeda search engine within MaxQuant. Identified results were used by Spectronaut^TM for spectral library construction. For DIA data, Spectronaut^TM used the constructed spectral library information to complete deconvolution and extraction, and used the mProphet algorithm to complete analytical quality control for obtaining reliable quantitative results. The mass spectrometry proteomics data have been deposited to the ProteomeXchange Consortium via the PRIDE [62] partner repository with the dataset identifier PXD050810. DEPs between comparison groups were identified based on the quantitative results, using the fold change >1.1 and p-value <0.05 as the criteria. After retrieval from the UniProtKB database, identified DEPs were processed for GO analysis by using DAVID (https://david.ncifcrf.gov/home.jsp) and Metascape database (https://metascape.org/gp/index.html).
In the case of B1, the log2FC is reported as -1.487. B2 gave a log2FC of -1.5061. With B3 the log2FC was -1.505. With B4 the log2FC was -1.445. B5 showed a log2FC of -1.516. With B6 the log2FC was -1.493.

Same assay, conditions: regulation class of the protein, HET-HIP-VS-WT-HIP; S3 Table, downregulated DEPs
In the case of B1, the Class is reported as “Down”. In the case of B2, the Class is reported as “Down”. In the case of B3, the Class is reported as “Down”. With B4 the Class was “Down”. B5 was tested, and the Class was “Down”. In the case of B6, the Class is reported as “Down”.
